Measurements taken from the nanobody polyreactivity screen of Harvey et al. (2022).

experiment: yeast display, Sf9 membrane polyspecificity reagent, FACS + sequencing; frameworks hold sequencing errors
How it was run: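 Nanobodies from a synthetic yeast display library (Saccharomyces cerevisiae BJ5465), induced 36–48 hours with galactose, were stained 1 hour at 4 °C with 10% biotinylated, detergent-solubilized Sf9 membrane reagent, enriched on streptavidin microbeads, then FACS-sorted. Anti-HA (expression) and streptavidin (reagent binding) fluorescence set low and high (top ~1%) gates. Polyreactivity labels come from the gate of origin. Genes were colony-PCR amplified, MiSeq 2 × 250 sequenced and filtered by CDR length.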

Sequence | polyreactivity (PSR sort gate)
QVQLVESGGGIVQAGGSLRLSCAASGNTFYPYTMGWYRQAPGKERELVADITYIGGDTYYADSVKGRFTISRDNAKNTVYLQMHTLKPEDTAVYYCNAVEVDHDYFYYGQNEYWGQGTQVTVSS | low polyreactivity
QVQLVESGGGIVQAGGSLRLSCAASGPNFTDNAMGWYRQAPGKERELVAAITGPGGSTYYAHSVKGRFTISRDNAKTTVYLQMNSLKREDTAVFYCAADYYYPYYWGQGTQVTVSS | low polyreactivity
QVQLVESGGGIVQAGGSLRLSCAASGRIFPHNAMGWDRQAPGKERELVAAITKSGDDTYYADSVKGRFTISRDNAKNTVYLQMNSLKPEDTAVYYCAAYLSWYDYWGQGTQVTVSS | low polyreactivity
QVQLVESGGGIVQAGGSLRLSCAASGRIFVGYAMGWYRQAPGKEREFVAAITFRGGTTYYADSVKGSFTISRDNAKNTVYLQMNSLKPEDTAVYYCAVPHYLYSVEYGYWGQGTQVTVSS | low polyreactivity
QVQLVESGGGIVQAGGSLRLSCAASGRIFVYNTMGWYRQAPGKEREFVAALSWRGGRTYYADSVKGRFTISRDNAKNTVYLQKNSLKPEDTAVYYCGADLKYYGYDYWGQGTHVTVSS | high polyreactivity
QVQLVESGGGIVQAGGSLRLSCAASGRIFYFNAMGWYSQAPGKERELVAAISGSGGDTYYADSVKGRFTISRDNAKNTVYLQMNSLKPEDTAVYFCAKEYIFRLWGQGTQVTVSS | low polyreactivity
QVQLVESGGGIVQAGGSLRLSCAASGRIFYINAMGWYRQAPGKERELVAAISTSGGCTYYADSVKGRFTISRDNAKKTVYLQMNSLKPEVTAVYYCAAALRYGYYGREYYYWGQGTKVTVSS | high polyreactivity
QVQLVESGGGIVQAGGSLRLSCAASGRNFSRYAMGWYRQAPGKERELVAVISRSGADTYYADSVKGRFTISRDNAKNTVYLQMNSLKPEDTAVYYCNAYSARRPHPMGYDYWGEGTQVTVSS | high polyreactivity
QVQLVESGGGIVQAGGSLRLSCAASGRTFTYNAMGRYRQAPGKERELVAAITYRGGSTYYADSVKGRFTISRDNAKNTVYLQMNSLKPEDTAVYYCAARVSYYRYNTPHYYYWGQGTQVTVSS | high polyreactivity
QVQLVESGGGIVQAGGSLRLSCAASGRTFYYYAMGWYRQAPGKERELVASISWSGGSTYYADSVKGRFTISRDNAKNTVYLQMNSLKPEDTAVYYCNAQYHTYRWLYAVYLSGDYWGQGTQVTVSS | low polyreactivity
QVQLVESGGGIVQAGGSLRLSCAASGRTIYFNAMGWYRQAPGKERELVATISRSTGSTYYADSVKGRFTISRDNAKNTVYLQMNSLKPEYTAVYYCNATPWGYARMDYWGQGTQVTVSS | low polyreactivity
QVQLVESGGGIVQAGGSLRLSCAASGSIFDYYTKAWYRQAPGKEREMVAAISWSGGSTYYADSVKGRFTISRDNAKNTVYLQMYSLKPEDTAVYYCATRVRTRTGYQYYYWGQGTQVTVSS | high polyreactivity
QVQLVESGGGIVQAGGSLRLSCAASGSIFLYYAMGWYRQAPGNERQLVATINWSGGTTYYADSVKGRFTISRDNAKNTVYLQMNSLKPEDTAVYYCNKAKTAYRGQYDYWGQGTQVTVSS | high polyreactivity
QVQLVESGGGIVQAGGSLRLSCAASGSIFNIYAMGWYRQAPGKERELVAAIRWTGGSTYYADSVKGRFTISRDNAKNTVYLQMNILIPEDTAVYYCAADPWYPRGYYWGQGTQVTVSS | high polyreactivity
QVQLVESGGGIVQAGGSLRLSCAASGSIFRWNAMGWYRQAPGKESELVAAIRWSSGSTYYADSVKGRFTISRDNAKNTVYLQMNSLKPEDTAVYYCAASRATIKYPKREYWGQGTQVTVSS | high polyreactivity
QVQLVESGGGIVQAGGSLRLSCAASGSIFSFNAMGWYRQAPGKERELVAAISRGGSTYYADSVKGRFTISRDNAKNTVYLQMNSLKPEDTAVYYCAADIYGHSYSYYLGEYWGQGTQVTVSS | high polyreactivity

Sequence | polyreactivity (PSR sort gate)
QVQLVESGGGIVQAGGSLRLSCAASGSIFSFYAMGWYRQAPGKERELVAAIDVSGGSTYYADSVKGRFTISRDNAKNSVYLQMNSLKPEDTAVYYCAKDVRDQYDYWGQGTQVTVSS | low polyreactivity
QVQLVESGGGIVQAGGSLRLSCAASGSIFSTNAMGWYRQAPWKERELVAAIDITNYADSVKGRFTISRDNAKNTVYLQMNSLKPEDTAVYYCNADTYSVVREGDYWGQGTQVTVSS | low polyreactivity
QVQLVESGGGIVQAGGSLRLSCAASGSIFTHYAMGWDRQAPGKERELVATISSTGSTDYADSVKGRFTISRDNAKNTVFLQINSLKPEDTAVYYCAAVSFYKTRATYYFWYDYWGQGTQVTVSS | low polyreactivity
QVQLVESGGGIVQAGGSLRLSCAASGSIFYAYAMGWYRQAPGKERELVASISRGVNTNYADSVKGRFTISRDNAKNTVYLQMNSLKPEDTAVYYCNARLRYGHGYGYWGQGTQVTVSS | low polyreactivity
QVQLVESGGGIVQAGGSLRLSCAASGSTFDYYAMGWYRQAPGKEMELVAGISASGGSTYYADSVKGRFTISRDNAKNTVYLQMNSLKPEDTAVYYWASYYKPPGYDYWGQGTQVTVSS | low polyreactivity
QVQLVESGGGIVQAGGSLRLSCAASGSTFEHNAMGWYRQAPGKEREFVAAITGSGGSTYYADSVKGRFTISRDNAKNTVYLQMTSLKPEDTAVYYCAADIQDGWYWWDIYDYWGQGTQVTVSS | low polyreactivity
QVQLVESGGGIVQAGGSLRLSCAASGSTFGVYAMGWYRQAPGKERDLVSVIRRGGGTDYADSVKGRFTISRDNAKNTVYLQMNSLNPEVTAVYYCAATVVRSGYLTLEMDYWGQGTQVTVSS | low polyreactivity
QVQLVESGGGIVQAGGSLRLSCAASGSTFLYYAMGWSRQAPGKEREFVAAISISGGSTYYADSVKGRFTISRDNAKNTVYLQMNSLKPEDTAVYYCAAEVGIVDYDYWGQGTQVTVSS | low polyreactivity
QVQLVESGGGIVQAGGSLRLSCAASGSTFNYNAMGWYRQAPGKERELVAAITRSGDSTYADSVKGRFTISRDNAKNTFYLQMNSLKPEYTAVYYCAKRYTHYSFRRFDYWGQGSQVTVSS | low polyreactivity
QVQLVESGGGIVQAGGSLRLSCAASGSTFTLYAMGWYRQAPGQERELVAAITSDDSTYYADSVKGRFTISRDNAKNTVYLQMNSLKPEDTAVYYCAADVYYGDYEMDYWGQGTQVTVSS | low polyreactivity
QVQLVESGGGIVQAGGSLRLSCAASGSTFYVNTMGWYRQAPGKERDLVAAISYTGGNTYYADSVKGRFTISRDNAKNTVYLQMNSLKPEDTAVYYCAARILYRGTGYPYRMNYWGQGTQVTVSS | high polyreactivity
QVQLVESGGGIVQAGGSLRLSCAASGSTFYVNVMGRYRQAPGKERELVAGITIRDGATYYADSVKGRFTISRDNAKITVYLQMNSLNPEDTAVYYCARAGDGEYKRDYWGQGTQVTVSS | low polyreactivity
QVQLVESGGGIVQAGGSLRLSCAASGSTYNLNALGWSRQAPGKERELVAAIDSGGRTNYADSVKGRFTISRDNAKNTVYVQMNSLKPEDTAVYYCAADVYAYPGSWYDYWGQGTQVTVSS | low polyreactivity
QVQLVESGGGIVQAGGSLRLSCAASGYNFRSYVMGWYRQAPGKERELVAAISVSGGRTYYADSVKGRFTISRDNAKNTVYLQMNSLKPEDTAVYYCATDPYSYYWPSHMDYWGQGTQVTVSS | high polyreactivity
QVQLVESGGGIVQAGGSLRLSCAATGNTFRYYTMGWYRKAPGKERELVAAINYRGSRTYYADSVKGRFTISRDNAKNTVYLQINSLKPEDTAVYYCARAYNAGYRYRSDYWGQGTQVTVSS | high polyreactivity
QVQLVESGGGIVQAGGSLRLSCATSGRIFDNNPKGRYRQAPGKESEMVAAIDWRGGTTDYADSVKGRFTISRDNAKNTVYFQMKSLKPEDTAVYYSNARGLNYYGRTFNYWGQGTQVTVSS | low polyreactivity
